{
  "source": "patent US6703362",
  "about": "(CYTOGEN, dated 2004)",
  "binders": {"B1": {"name": "PAX17 (peptide)", "peptide": "SQVDSFRNSFRWYEPSRALCHGCGKRDTSTTRIHNSPSDSYPTRAETVESCLAKPHTENSFTNVWKDDKTLDRYANYEGCLWNATGVVVCTGDETQCYGTWVPIGLAIPENEGGGSEGGGSEGGGSEGGGTKPPEYGDTPIPGYTYINPLDGTYPPGTEQNPANPNPSLEESQPLNTFMFQNNRFRNRQGALTVYTGTVTQGTDPVKTYYQYTPVSSKAMYDAYWNGKFRDCAFHSGFNEDPFVCEYQGQSSDLPQPPVNAGGGSGGGSGGGSEGGGSEGGGSEGGGSEGGGSGGGSGSGDFDYEKMANANKGAMTENADENALQSDAKGKLDSVATDYGAAIDGFIGDVSGLANGNGATGDFAGSNSQMAQVGDGDNSPLMNNFRQYLPSLPQSVECRPFVFSAGKPYEFSIDCDKINLFRGVFAFLLYVATFMYVFSTFANILRNKES", "notes": "Assayed as M13 phage clone displaying the insert"}, "B2": {"name": "PAX18 (peptide)", "peptide": "SFLRFQSPRFEDYSRTISRLRNATNPSNVSDAHNNRALAAETVESCLAKPHTENSFTNVWKDDKTLDRYANYEGCLWNATGVVVCTGDETQCYGTWVPIGLAIPENEGGGSEGGGSEGGGSEGGGTKPPEYGDTPIPGYTYINPLDGTYPPGTEQNPANPNPSLEESQPLNTFMFQNNRFRNRQGALTVYTGTVTQGTDPVKTYYQYTPVSSKAMYDAYWNGKFRDCAFHSGFNEDPFVCEYQGQSSDLPQPPVNAGGGSGGGSGGGSEGGGSEGGGSEGGGSEGGGSGGGSGSGDFDYEKMANANKGAMTENADENALQSDAKGKLDSVATDYGAAIDGFIGDVSGLANGNGATGDFAGSNSQMAQVGDGDNSPLMNNFRQYLPSLPQSVECRPFVFSAGKPYEFSIDCDKINLFRGVFAFLLYVATFMYVFSTFANILRNKES", "notes": "as for B1"}, "B3": {"name": "PAX35 (peptide)", "peptide": "RSITDGGINEVDLSSVSNVLENANSHRAYRKHRPTLKRPAETVESCLAKPHTENSFTNVWKDDKTLDRYANYEGCLWNATGVVVCTGDETQCYGTWVPIGLAIPENEGGGSEGGGSEGGGSEGGGTKPPEYGDTPIPGYTYINPLDGTYPPGTEQNPANPNPSLEESQPLNTFMFQNNRFRNRQGALTVYTGTVTQGTDPVKTYYQYTPVSSKAMYDAYWNGKFRDCAFHSGFNEDPFVCEYQGQSSDLPQPPVNAGGGSGGGSGGGSEGGGSEGGGSEGGGSEGGGSGGGSGSGDFDYEKMANANKGAMTENADENALQSDAKGKLDSVATDYGAAIDGFIGDVSGLANGNGATGDFAGSNSQMAQVGDGDNSPLMNNFRQYLPSLPQSVECRPFVFSAGKPYEFSIDCDKINLFRGVFAFLLYVATFMYVFSTFANILRNKES", "notes": "as for B1"}, "B4": {"name": "PAX38 (peptide)", "peptide": "SSKVSSPRDPTVPRKGGNVDYGCGHRSSARMPTSALSSITKCYTAETVESCLAKPHTENSFTNVWKDDKTLDRYANYEGCLWNATGVVVCTGDETQCYGTWVPIGLAIPENEGGGSEGGGSEGGGSEGGGTKPPEYGDTPIPGYTYINPLDGTYPPGTEQNPANPNPSLEESQPLNTFMFQNNRFRNRQGALTVYTGTVTQGTDPVKTYYQYTPVSSKAMYDAYWNGKFRDCAFHSGFNEDPFVCEYQGQSSDLPQPPVNAGGGSGGGSGGGSEGGGSEGGGSEGGGSEGGGSGGGSGSGDFDYEKMANANKGAMTENADENALQSDAKGKLDSVATDYGAAIDGFIGDVSGLANGNGATGDFAGSNSQMAQVGDGDNSPLMNNFRQYLPSLPQSVECRPFVFSAGKPYEFSIDCDKINLFRGVFAFLLYVATFMYVFSTFANILRNKES", "notes": "as for B1"}, "B5": {"name": "PAX40 (peptide)", "peptide": "RASTQGGRGVAPEFGASVLGRGCGSATYYTNSTSCKDAMGHNYSAETVESCLAKPHTENSFTNVWKDDKTLDRYANYEGCLWNATGVVVCTGDETQCYGTWVPIGLAIPENEGGGSEGGGSEGGGSEGGGTKPPEYGDTPIPGYTYINPLDGTYPPGTEQNPANPNPSLEESQPLNTFMFQNNRFRNRQGALTVYTGTVTQGTDPVKTYYQYTPVSSKAMYDAYWNGKFRDCAFHSGFNEDPFVCEYQGQSSDLPQPPVNAGGGSGGGSGGGSEGGGSEGGGSEGGGSEGGGSGGGSGSGDFDYEKMANANKGAMTENADENALQSDAKGKLDSVATDYGAAIDGFIGDVSGLANGNGATGDFAGSNSQMAQVGDGDNSPLMNNFRQYLPSLPQSVECRPFVFSAGKPYEFSIDCDKINLFRGVFAFLLYVATFMYVFSTFANILRNKES", "notes": "as for B1"}, "B6": {"name": "PAX43 (peptide)", "peptide": "RWCEKHKFTAARCSAGAGFERDASRPPQPAHRDNTNRNAAETVESCLAKPHTENSFTNVWKDDKTLDRYANYEGCLWNATGVVVCTGDETQCYGTWVPIGLAIPENEGGGSEGGGSEGGGSEGGGTKPPEYGDTPIPGYTYINPLDGTYPPGTEQNPANPNPSLEESQPLNTFMFQNNRFRNRQGALTVYTGTVTQGTDPVKTYYQYTPVSSKAMYDAYWNGKFRDCAFHSGFNEDPFVCEYQGQSSDLPQPPVNAGGGSGGGSGGGSEGGGSEGGGSEGGGSEGGGSGGGSGSGDFDYEKMANANKGAMTENADENALQSDAKGKLDSVATDYGAAIDGFIGDVSGLANGNGATGDFAGSNSQMAQVGDGDNSPLMNNFRQYLPSLPQSVECRPFVFSAGKPYEFSIDCDKINLFRGVFAFLLYVATFMYVFSTFANILRNKES", "notes": "as for B1"}, "B7": {"name": "PAX45 (peptide)", "peptide": "SFQVYPDHGLERHALDGTGPLYAMPGRWIRARPQNRDRQAETVESCLAKPHTENSFTNVWKDDKTLDRYANYEGCLWNATGVVVCTGDETQCYGTWVPIGLAIPENEGGGSEGGGSEGGGSEGGGTKPPEYGDTPIPGYTYINPLDGTYPPGTEQNPANPNPSLEESQPLNTFMFQNNRFRNRQGALTVYTGTVTQGTDPVKTYYQYTPVSSKAMYDAYWNGKFRDCAFHSGFNEDPFVCEYQGQSSDLPQPPVNAGGGSGGGSGGGSEGGGSEGGGSEGGGSEGGGSGGGSGSGDFDYEKMANANKGAMTENADENALQSDAKGKLDSVATDYGAAIDGFIGDVSGLANGNGATGDFAGSNSQMAQVGDGDNSPLMNNFRQYLPSLPQSVECRPFVFSAGKPYEFSIDCDKINLFRGVFAFLLYVATFMYVFSTFANILRNKES", "notes": "as for B1"}, "B8": {"name": "PAX46 (peptide)", "peptide": "SRCTDNEQCPDTGTRSRSVSNARYFSSRLLKTHAPHRPAETVESCLAKPHTENSFTNVWKDDKTLDRYANYEGCLWNATGVVVCTGDETQCYGTWVPIGLAIPENEGGGSEGGGSEGGGSEGGGTKPPEYGDTPIPGYTYINPLDGTYPPGTEQNPANPNPSLEESQPLNTFMFQNNRFRNRQGALTVYTGTVTQGTDPVKTYYQYTPVSSKAMYDAYWNGKFRDCAFHSGFNEDPFVCEYQGQSSDLPQPPVNAGGGSGGGSGGGSEGGGSEGGGSEGGGSEGGGSGGGSGSGDFDYEKMANANKGAMTENADENALQSDAKGKLDSVATDYGAAIDGFIGDVSGLANGNGATGDFAGSNSQMAQVGDGDNSPLMNNFRQYLPSLPQSVECRPFVFSAGKPYEFSIDCDKINLFRGVFAFLLYVATFMYVFSTFANILRNKES", "notes": "as for B1"}, "B9": {"name": "5PAX3 (peptide)", "peptide": "RPKNVADAYSSQDGAAAEETSHASNAARKSPKHKPLRRPAETVESCLAKPHTENSFTNVWKDDKTLDRYANYEGCLWNATGVVVCTGDETQCYGTWVPIGLAIPENEGGGSEGGGSEGGGSEGGGTKPPEYGDTPIPGYTYINPLDGTYPPGTEQNPANPNPSLEESQPLNTFMFQNNRFRNRQGALTVYTGTVTQGTDPVKTYYQYTPVSSKAMYDAYWNGKFRDCAFHSGFNEDPFVCEYQGQSSDLPQPPVNAGGGSGGGSGGGSEGGGSEGGGSEGGGSEGGGSGGGSGSGDFDYEKMANANKGAMTENADENALQSDAKGKLDSVATDYGAAIDGFIGDVSGLANGNGATGDFAGSNSQMAQVGDGDNSPLMNNFRQYLPSLPQSVECRPFVFSAGKPYEFSIDCDKINLFRGVFAFLLYVATFMYVFSTFANILRNKES", "notes": "as for B1"}},
  "data": [
    {"target": "T1, hPEPT1 receptor domain (human PEPT1, amino acid residues 391-571), His-tag fusion protein (human, UniProt P46059 391-571)", "T1 construct": "purified under denaturing conditions; also called recombinant hPEPT1; not shown: poly-histidine tag (pET vector) at the NH2-terminal end", "T1 sequence": "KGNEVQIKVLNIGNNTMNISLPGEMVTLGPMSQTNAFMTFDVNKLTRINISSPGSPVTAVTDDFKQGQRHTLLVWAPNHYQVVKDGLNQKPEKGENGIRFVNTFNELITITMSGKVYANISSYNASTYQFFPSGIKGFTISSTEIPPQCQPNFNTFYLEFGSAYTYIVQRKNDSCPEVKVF", "assay": "phage ELISA, plate coated with hPEPT1 domain", "procedure": "6.6. Receptor ELISA Procedure 96 well plates were coated overnight with GIT receptor, BSA and, optionally, IDE (insulin degrading enzyme, an irrelevant His-fusion protein)or hTF. The plates were blocked for one hour with 0.5% BSA-PBS. After clarification, the amplified phage were diluted 1:100 in […] plus 0.05% Tween 20 in PBS and added to the plates. Following incubation of the plates on a rotator for 1 to 2 hours, the plates were washed 5 times with 1% BSA plus 0.05% Tween 20 in PBS. […] After the plates were washed 5 times, as described above, TMB substrate was added to the wells. The plates were read at 650 nm absorbance.", "units": {"OD": "OD"}, "values": [
      {"binder": "B1", "OD": 0.514},
      {"binder": "B2", "OD": 0.416},
      {"binder": "B3", "OD": 0.474},
      {"binder": "B4", "OD": 0.292},
      {"binder": "B5", "OD": 0.461},
      {"binder": "B6", "OD": 0.345},
      {"binder": "B7", "OD": 0.419},
      {"binder": "B8", "OD": 0.429},
      {"binder": "B9", "OD": 0.173}
    ]}
  ]
}
